For series [1] the following is noted: clinical studies; easily overdosed; cited from earlier work.
For series [2], the system named is blood clotting (human citrate plasma). Nature of the series: activated partial thromboplastin time (APTT), action on blood clotting. It counts as biochemical. The settings on record: at low concentrations; pre-clinical data, see sample application 1. How it is done: The action of triabin and hirudin on blood clotting was measured by determining the activated partial thromboplastin time (APTT). 100 μl of human citrate plasma, 10 μl of inhibitor (triabin or hirudin) and 100 μl of APTT reagent (pathromtin from the Behring Company) were incubated for 3 minutes at 37° C. After 100 μl of a 25 mmol CaCl2 solution was added, the time until clots formed was measured. The measuring was carried out in a fibrometer of the Sarstedt Company. The results are indicated in an extension of the clotting time, which was measured without adding inhibitor.

As for hirudin, the bleeding on overdosing result in series [1] is reported as “severe bleeding complications”. Besides, the inhibition of clotting entry in series [2] was “inhibits at low concentrations”.
